Measured values reported in the DeepSol protein solubility set.

test: soluble on expression in E. coli; label from the status in PepcDB or PDB records

Sequence	soluble on expression in E. coli
MAVRFASLGSGSDGNALLVESTDGTTSTRILLDCGFGIRETVRRLERLGCAPASLDAILVTHEHGDHIGSAYAFAAKYSVPVWTSHGTYRATASLRGADRAAVRFCRADDAFSIGDLRILPYTVPHDAREPLQFIFDDGARRLGVLTDAGMSTEYLCGHLTGLHAFVLECNHDREMLANSAYPWSLKQRIGGDFGHLANDIAAAILARVRHDGLHTVVAAHLSKQNNTPELAAAAIASALGVPAGDVPIADQEAGLGWQAVLEHHHHHH	not soluble
MDYSKIIKEVGRGKNHARDLDQPTAYALYKAMLAGQVPALELGGILIAFRIKGESEQEILGFYQAMQEQVMSLRAPVDRPLPVVIPSYNGARKQANLTPLLALLLSRLGLPVVVHGVTEDSSRVTSAEIFQQLNIPWSLSVQEAQQRLDNGLPVFIPVSALSMQLDQQLQQRWRMGVRNSSHTLAKLATPFTHDKALRVASVSHPEYMQKVGGFFQAISAPGLLLQGTEGEVYANPLRCPPIHYINDGEQTILLDRSSESVVPELPLSKDAVITARWIEGCLAGEQPIPDSILKQLACCLVAAGQADSVELALQQIKIV	not soluble
MTLPVRKSLHDAVLQASKADTWEQATKEWNEVSFIFNGIGRSNCVCGNAIKYAYELFNGVTGQRLFPIGSDCVRHFHRLSLDQQLEEEEKLLRKVENLTRKAQKKEKIKVNKSNFDERLLKWLWEKGVFKPNRGNQFAPERDYQLFLEVFQGGSWTKAEPKKKARMEEVLEKCIKPFLLGKSDDQLYLVKLGKEKIDYEQELRIQAEKERKKRDKIAKQYADNLVLAMGPAERAYQDYFGFTETLTQEERKWEKILFGKNRAERAIKAKQYQKELEKDQRIASQDPIERKQKQTWILNSYFRELPEEKARFSRLLLEYRKSGEVPFSTEYLSDHLIDFFYKMKAFEFEIAPEQVRDFLKKSLQEDHRSSAQGSWIEGILLNCLKPFLERLVI	not soluble
VSKDRLYFRQLLSGRDFAVGDMFATQMRNFAYLIGDRTTGDCVVVDPAYAAGDLLDALESDDMQLSGVLVTHHHPDHVGGSMMGFQLPGLAELLERASVPVHVNTHEALWVSRVTGIPVGDLITHEHGDKVSVGDIDIELLHTPGHTPGSQCFLLDGRLVAGDTLFLEGCGRTDFPGGDSDEMYRSLRQLAELPGDPTVFPGHWYSAEPSASLSEVKRSNYVYRPASLDQWRMLMGG	not soluble
ESLSGEDAFPYRHQIVEIPPIELIVIEHRLHQLTCGQCGTNTRAKLPDDVNPSEYGVRVVAMVALLSGVYRNSQRMVQSALADLFGISMSLGTVNTLRIEANNAVANCVDEAKLYVQHSNVVGADETGFNQGNIDGGNPKQRQAWLWVGVTPLVTFFEVALTRCTSAVKNLLGENFAGILTSDRHGAYNWVDI	not soluble
MKKLPNIHPGEVLMEEFLIPMEITSYRLAKEIGIPQTRVSEITKGRRRITADTALRLSKYFGNSPKFWLGLQDDYDIEEESQLIAEELKAIKKVVV	not soluble
ATHYSVADRWGNAVSVTYTINASYGSAASIDGAGFLLNNEMDDFSIKPGNPNLYGLVGGDANAIEANKRPLSSMSPTIVLKNNKVFLVVGSPGGSRIITTVLQVISNVIDYNMNISEAVSAPRFHMQWLPDELRIEKFGMPADVKDNLTKMGYQIVTKPVMGDVNAIQVLPKTKGSVFYGSTDPRKEF	soluble
MTNWLIAYQGEPGAYSEIAALRFGEPLPCESFDDVFSAVTEQKADYAVIPIENSLGGSIHQNYDLLLRRPVVILAETFVKVEHCLLGLPGASVETATKAMSHPQALVQCHNFFATHPQIRAEAAYDTAGSAKMVAESRDKSALAIASKRAGELYGLDILKENLADEEWNITRFFCIAHENNPDISHLKVRPDVARQKTSIVFALPNEQGSLFRALATFALRGIDLTKIESRPSRKKAFEYLFYADFIGHREDQNVHNALENLREFATMVKVLGSYGVVNP	soluble
MSLRIAVDAMGGDHAPKAVIDGVIKGIEAFDDLHITLVGDKTTIESHLTTTSDRITVLHADEVIEPTDEPVRAVRRKKNSSMVLMAQEVAENRADACISAGNTGALMTAGLFIVGRIKGIDRPALAPTLPTVSGDGFLLLDVGANVDAKPEHLVQYAIMGSVYSQQVRGVTSPRVGLLNVGTEDKKGNELTKQTFQILKETANINFIGNVEARDLLDDVADVVVTDGFTGNVTLKTLEGSALSIFKMMRDVMTSTLTSKLAAAVLKPKLKEMKMKMEYSNYGGASLFGLKAPVIKAHGSSDSNAVFRAIRQAREMVSQNVAALIQEEVKEEKTDEEGGSHHHHHH	soluble
MGSDKIHHHHHHMTNWLPDLTGGAGPLYQRLADSVEAGIDQGVIGAGTKLPPQRDLAYDIGTTVGTVGRAYQLLRERGLVSGEVGRGTYVLGRRADGVKPEAPDVSVEGTRYVDAPQDKLRFDSTAAPDVGQGAVVADVLSRTAQDHPHEISSYTRDFPGRWYEAGARWLARNSFRPAADGIVPTLGTHAAVMAAIAALTTPGDYVAFEHLTYSQISRSAGLIGRRTALVASDDEGLDPADFERVCAQKHPRMIFLMPTAQNPTLTTLSAGRREAIARVAREYNVILIEDDLYGHLTDDPTPLLAEYAPERTIVAGGLSKSVAAGIRGGWLSCPPAYRHRIRVAHKMMTGGMPFLLAEVNTRLVLSGQASDIRKRCIAEISARIAIVRETLAGFAFKSHDKVPFVWLTLPDPWLSGTFKNACLEHGVLIDDEDEFKAGRSEQVFHGVRFGTSQPRQRGDVANGVAVIRRLLDEGRAGYDSFS	not soluble
GRMRIQEQSGARDKMVIGAGGLEDYIDKAMDDVAPNLKALVGAKLGARLISLAGGLKELAMLPSSTIQVLGAEKALFRHLRTGAKPPKHGVIYQYPAINRSPWWQRGKIARALAGKLAIAARVDYFSGEYIAEELKKELEARIKEIKEKYPRPPKRRKEERKGRKPWKE	soluble
MSSETRRKILEAARKAFSKYGYDGVSMEEIAREAGVKKALIYYYFPSKDKLFEEVWREALEELESHLFAVTEETNSYFAKIKKFLKSYVDFVLNKTVLNEIIEKEKSTVRFEEEKWSKLRERYESFIKRVEELIEEGKKQNYVYKDLDSRAAAELIVNSFGDVPKDKRLLQNIQEMILRGLLNVKTEEGR	not soluble
MPETELHVIFDQPNEVFFPGQPISGRVVLSTTKEKYKARAVNIKILGLAHTSWTDYESVRRVDADGKVSHHRQSVHYSANVNYLDYTLLLWACKDGSNELAAGEYAWSFSYNLPLNVPPSFEGKYGYLRYSVTAEVDRPWRLDKAKKRCITVSPLIDLNVIPHALTQINDQASENLGCCCFKKGYLELRVNIPKTGFVPGETVPMNIHILNHSSVPVTEVKAKIIQQCKFIAYRNGTTFHYGGGYETGMSGQLQETKHDTKTVVKHGQEMTVAPRNEHKFAMELRLPSVTPTINQFSPVITVEYIVQFHVETSSTFGSDVDCEMGILIGTVPIRQFLPPAYYPQDPNLPQILPTPIGGGVVAPPPGYGFLPMADGSEKGAGDASYPAASMPMYPIPNVPYPSKDDGTVVIPSAPPLSYEESMFGQDGTELNTDENEQPFAPKYPVFNNLPVYNPTAPPPE	not soluble
MGSDKIHHHHHHMADTFLFRVHRSQILPALNAVFEAVDPRSNIPILQNVLLSPNAERLRLSGTNMTVEVETSCDLLESASGNPLTLSGKALLDIVKSFSEVAEIEFSFDDLRGQVRVKSGRSRFLLATLHADQFPTIASLASGKSVAVDMPSLISAIARVKYALFDHKDRAYLSGIFIHPEEGENKIAVVAADGHNLAVVRFPCEAGTTFPGAIIPIKAIDAIRRLFGETKASAQVKISDEMIQICCHDVRLTSKLIDAVYPDYDVAIPKDNTSRIIVDAKHLINAVHRVCLVKKDDKRDTIKLVGSNGMLQVSMAATDGEEAVEEIAAEYNGPQIRIGFNGDYLKDALSSIKTTDVAINLLTESSPGLLTPTVGTDELYVVYPRVLPHD	not soluble
MTGNAKLIDRVSAINWNRLQDEKDAEVWDRLTGNFWLPEKVPVSNDIPSWGTLTAGEKQLTMRVFTGLTMLDTIQGTVGAVSLIPDALTPHEEAVLTNIAFMESVHAKSYSQIFSTLCSTAEIDDAFRWSEENRNLQRKAEIVLQSYRGDEPLKRKVASTLLESFLFYSGFYLPMYWSSRAKLTNTADMIRLIIRDEAVHGYYIGYKFQRGLALVDDVTRAELKDYTYELLFELYDNEVEYTQDLYDEVGLTEDVKKFLRYNANKALMNLGYEALFPRDETDVNPAILSALSPNAD	soluble
